pKd: −log10 of the molar value.
Target: human plasminogen (human)
Test: SPR; BIAcore T100 at 25°C; plasminogen amine-coupled to a CM-5 chip (5.0 ng/mm^2); dispersin at 2.5–120 μM in HBS-P (10 mM HEPES pH 7.4, 150 mM NaCl, 0.005% P20) at 30 μL/min; 1:1 model

Question: Which results are given for “recombinant dispersin (mature dispersin of enteroaggregative Escherichia coli strain 17-2) (from UniProt P43464 1-265) (natural protein)”?
Answer: pKd: 6.55; koff: 0.0016 s⁻¹; kon: 5680 M⁻¹ s⁻¹
